Tests used:
[1] = biological target: HIV-1 Env of pseudovirus 25710 (HIV-1); test: cell-based or functional assay
[2] = biological target: HIV-1 Env of pseudovirus Ce0217 (HIV-1); test: cell-based or functional assay
[3] = biological target: HIV-1 Env of pseudovirus Ce1176 (HIV-1); test: cell-based or functional assay
[4] = biological target: HIV-1 Env of pseudovirus X2278 (HIV-1); test: cell-based or functional assay
[5] = biological target: HIV-1 Env of pseudovirus TRO.11 (HIV-1); test: cell-based or functional assay
[6] = biological target: HIV-1 Env of pseudovirus BJOX2000 (HIV-1); test: cell-based or functional assay
[7] = biological target: HIV-1 Env of pseudovirus CNE8 (HIV-1); test: cell-based or functional assay
[8] = biological target: HIV-1 Env of pseudovirus 398-F1 (HIV-1); test: cell-based or functional assay
[9] = biological target: HIV-1 Env of pseudovirus CH119.10 (HIV-1); test: cell-based or functional assay
[10] = biological target: HIV-1 Env of pseudovirus X1632 (HIV-1); test: cell-based or functional assay
[11] = biological target: HIV-1 Env of pseudovirus 246 (HIV-1); test: cell-based or functional assay
[12] = biological target: HIV-1 Env of pseudovirus CNE55 (HIV-1); test: cell-based or functional assay
[13] = biological target: HIV-1 Env of pseudovirus CH181 (HIV-1); test: cell-based or functional assay
[14] = biological target: HIV-1 Env of pseudovirus CAP45 (HIV-1); test: cell-based or functional assay
[15] = biological target: HIV-1 Env of pseudovirus MW965 (HIV-1); test: cell-based or functional assay
[16] = biological target: HIV-1 Env of pseudovirus SF162 (HIV-1, UniProt P19550 32-847); test: cell-based or functional assay
[17] = biological target: HIV-1 Env of pseudovirus BJMSM2498 (HIV-1); test: cell-based or functional assay
[18] = biological target: HIV-1 Env of pseudovirus AC10 (HIV-1); test: cell-based or functional assay
[19] = biological target: HIV-1 Env of pseudovirus RHPA4259 (HIV-1); test: cell-based or functional assay
[20] = biological target: HIV-1 Env of pseudovirus QH0692 (HIV-1); test: cell-based or functional assay
[21] = biological target: HIV-1 Env of pseudovirus Q842 (HIV-1); test: cell-based or functional assay
[22] = biological target: HIV-1 Env of pseudovirus BJMSM2316 (HIV-1); test: cell-based or functional assay
[23] = biological target: HIV-1 Env of pseudovirus ZM249M (HIV-1); test: cell-based or functional assay
[24] = biological target: HIV-1 Env of pseudovirus Q461 (HIV-1); test: cell-based or functional assay
[25] = biological target: HIV-1 Env of pseudovirus TRJO4551 (HIV-1); test: cell-based or functional assay
[26] = biological target: HIV-1 Env of pseudovirus BJMSM2249 (HIV-1); test: cell-based or functional assay
[27] = biological target: HIV-1 Env of pseudovirus SC422661 (HIV-1); test: cell-based or functional assay
[28] = biological target: HIV-1 Env of pseudovirus PV0.4 (HIV-1); test: cell-based or functional assay
[29] = biological target: HIV-1 Env of pseudovirus Q259 (HIV-1); test: cell-based or functional assay
[30] = biological target: HIV-1 Env of pseudovirus Q769 (HIV-1); test: cell-based or functional assay
[31] = biological target: HIV-1 Env of pseudovirus REJO4541 (HIV-1); test: cell-based or functional assay
[32] = biological target: HIV-1 Env of pseudovirus CH120 (HIV-1); test: cell-based or functional assay
[33] = biological target: HIV-1 Env of pseudovirus Du422 (HIV-1); test: cell-based or functional assay
[34] = biological target: HIV-1 Env of pseudovirus CH117 (HIV-1); test: cell-based or functional assay
[35] = biological target: HIV-1 Env of pseudovirus CH110 (HIV-1); test: cell-based or functional assay
[36] = biological target: HIV-1 Env of pseudovirus ZM109F (HIV-1); test: cell-based or functional assay
[37] = biological target: HIV-1 Env of pseudovirus CAAN5342 (HIV-1); test: cell-based or functional assay
wild-type (WT) YU2 gp120 = biological target: T1, wild-type (WT) YU2 gp120 (HIV-1, UniProt P35961 32-498); test: ELISA, antigen coated at 2 µg/ml
T1 construct: domain: gp120

B1: monoclonal antibody DRVIA7H+VRC01L (antibody, V domains shown)
VH: QVQLVESGTQFRRPGASVRLSCEASGYTFISSFIHWIRQGPGQGLEWMGWMNPRHGAVNYPRRFQGKVTMTRDTSIDTAYMELRDLRSDDTAMYFCVTSRTKDYDWDFVWGQGTLVVVSS
VL: EIVLTQSPGTLSLSPGETAIISCRTSQYGSLAWYQQRPGQAPRLVIYSGSTRAAGIPDRFSGSRWGPDYNLTISNLESGDFGVYYCQQYEFFGQGTKVQVDI
[1]
  IC50 in µg/ml, TZM-bl/pseudovirus neutralizing assay: 2.5 µg/mL
[2]
  IC50 in µg/ml, TZM-bl/pseudovirus neutralizing assay: 0.65 µg/mL
[3]
  IC50 in µg/ml, TZM-bl/pseudovirus neutralizing assay: 4.08 µg/mL
[4]
  IC50 in µg/ml, TZM-bl/pseudovirus neutralizing assay: 0.34 µg/mL
[5]
  IC50 in µg/ml, TZM-bl/pseudovirus neutralizing assay: 1.18 µg/mL
[6]
  IC50 in µg/ml, TZM-bl/pseudovirus neutralizing assay: 15.9 µg/mL
[7]
  IC50 in µg/ml, TZM-bl/pseudovirus neutralizing assay: 1.48 µg/mL
[8]
  IC50 in µg/ml, TZM-bl/pseudovirus neutralizing assay: 0.8 µg/mL
[9]
  IC50 in µg/ml, TZM-bl/pseudovirus neutralizing assay: 1.85 µg/mL
[10]
  IC50 in µg/ml, TZM-bl/pseudovirus neutralizing assay: 0.61 µg/mL
[11]
  IC50 in µg/ml, TZM-bl/pseudovirus neutralizing assay: 1.29 µg/mL
[12]
  IC50 in µg/ml, TZM-bl/pseudovirus neutralizing assay: 1.23 µg/mL
[13]
  IC50 in µg/ml, TZM-bl/pseudovirus neutralizing assay: 0.98 µg/mL
[14]
  IC50 in µg/ml, TZM-bl/pseudovirus neutralizing assay: 0.84 µg/mL
[15]
  IC50 in µg/ml, TZM-bl/pseudovirus neutralizing assay: 0.2 µg/mL
[16]
  IC50 in µg/ml, TZM-bl/pseudovirus neutralizing assay: 0.3 µg/mL
[17]
  IC50 in µg/ml, TZM-bl/pseudovirus neutralizing assay: 4.32 µg/mL
[18]
  IC50 in µg/ml, TZM-bl/pseudovirus neutralizing assay: 15.5 µg/mL
[19]
  IC50 in µg/ml, TZM-bl/pseudovirus neutralizing assay: 0.34 µg/mL
[20]
  IC50 in µg/ml, TZM-bl/pseudovirus neutralizing assay: 2.03 µg/mL
[21]
  IC50 in µg/ml, TZM-bl/pseudovirus neutralizing assay: 0.18 µg/mL
[22]
  IC50 in µg/ml, TZM-bl/pseudovirus neutralizing assay: 0.47 µg/mL
[23]
  IC50 in µg/ml, TZM-bl/pseudovirus neutralizing assay: 0.74 µg/mL
[24]
  IC50 in µg/ml, TZM-bl/pseudovirus neutralizing assay: 1.4 µg/mL
[25]
  IC50 in µg/ml, TZM-bl/pseudovirus neutralizing assay: 1.44 µg/mL
[26]
  IC50 in µg/ml, TZM-bl/pseudovirus neutralizing assay: 2.25 µg/mL
[27]
  IC50 in µg/ml, TZM-bl/pseudovirus neutralizing assay: 0.58 µg/mL
[28]
  IC50 in µg/ml, TZM-bl/pseudovirus neutralizing assay: 1.18 µg/mL
[29]
  IC50 in µg/ml, TZM-bl/pseudovirus neutralizing assay: > 20 µg/mL
[30]
  IC50 in µg/ml, TZM-bl/pseudovirus neutralizing assay: 0.3 µg/mL
[31]
  IC50 in µg/ml, TZM-bl/pseudovirus neutralizing assay: 0.75 µg/mL
[32]
  IC50 in µg/ml, TZM-bl/pseudovirus neutralizing assay: 6.53 µg/mL
[33]
  IC50 in µg/ml, TZM-bl/pseudovirus neutralizing assay: > 20 µg/mL
[34]
  IC50 in µg/ml, TZM-bl/pseudovirus neutralizing assay: 0.59 µg/mL
[35]
  IC50 in µg/ml, TZM-bl/pseudovirus neutralizing assay: 0.15 µg/mL
[36]
  IC50 in µg/ml, TZM-bl/pseudovirus neutralizing assay: 0.59 µg/mL
[37]
  IC50 in µg/ml, TZM-bl/pseudovirus neutralizing assay: 3.4 µg/mL
wild-type (WT) YU2 gp120
  binding result: binds

Source: patent US20190002539A1 (NATIONAL CENTER FOR AIDS STD CONTROL AND PREVENTION CHINESE …, published 2019)
